Laboratory results taken from publication PMC9482650, “Quantitative fragmentomics allow affinity mapping of interactomes” (Nature Communications, 2022).
Residue numbers refer to the chain shown, from its start.

B1: CD46, P15529 (peptide)
chain: THREVKFTSL
B2: NRXN3, Q9HDB5 (peptide)
chain: QKNKDREYYV
B3: SCN4B, Q8IWT1 (peptide)
chain: KAEEKPPSKV
B4: RCN2, Q14257 (peptide)
chain: HDDYFYHDEL
B5: EGLN1, Q9GZT9 (peptide)
chain: PSDSVGKDVF

Columns and labels:
Experiment in all cases: holdup assay
Set-up in all cases: key: below the threshold = too weak to quantify, mostly under pKd 3.1 to 4
Conditions in all cases: plain residues with an end cap or a label only (N-terminal biotin on a linker: ado-ado)
APBA1_2, Q02410 = molecular target: T1, APBA1_2, Q02410
T1 sequence (Q02410 742-832, limits assumed, looked up): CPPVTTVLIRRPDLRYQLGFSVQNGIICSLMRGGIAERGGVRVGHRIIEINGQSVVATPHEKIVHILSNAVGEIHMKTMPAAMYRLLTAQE

APBA2_2, Q99767 = molecular target: T2, APBA2_2, Q99767
T2 sequence (Q99767 654-744, limits assumed, looked up): T1 sequence (Q02410 742-832, limits assumed, looked up) with R10K, R15K, P59A, H65Q, I66A, A70S, Y84F, A89G

GRIP2_7, Q9C0E4 = molecular target: GRIP2_7, Q9C0E4
Chain of GRIP2_7, Q9C0E4 (Q9C0E4 934-1023): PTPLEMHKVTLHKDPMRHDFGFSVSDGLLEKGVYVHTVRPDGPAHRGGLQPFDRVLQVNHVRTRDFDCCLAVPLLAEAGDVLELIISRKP

APBA3_1, O96018 = molecular target: T3, APBA3_1, O96018
T3 sequence (O96018 389-490, limits assumed, looked up): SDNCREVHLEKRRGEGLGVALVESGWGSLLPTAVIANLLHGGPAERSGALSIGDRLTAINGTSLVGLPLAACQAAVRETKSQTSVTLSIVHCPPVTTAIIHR

GIPC2, Q8TF65 = molecular target: GIPC2, Q8TF65
Chain of GIPC2, Q8TF65 (Q8TF65 112-203): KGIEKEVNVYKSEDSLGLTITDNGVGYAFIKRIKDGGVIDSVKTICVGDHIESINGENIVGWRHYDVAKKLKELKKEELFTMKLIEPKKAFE

Inadl_2, Q8NI35 = molecular target: Inadl_2, Q8NI35
Chain of Inadl_2, Q8NI35 (Q8NI35 238-335): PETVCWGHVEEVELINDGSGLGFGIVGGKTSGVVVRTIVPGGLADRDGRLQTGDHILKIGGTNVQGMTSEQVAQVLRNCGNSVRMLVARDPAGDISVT

MAGI3_2, Q5TCQ9 = molecular target: MAGI3_2, Q5TCQ9
Chain of MAGI3_2, Q5TCQ9 (Q5TCQ9 398-503): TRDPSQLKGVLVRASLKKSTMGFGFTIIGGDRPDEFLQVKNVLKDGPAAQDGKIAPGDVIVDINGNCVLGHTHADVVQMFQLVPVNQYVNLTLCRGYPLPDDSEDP

MAST2, Q6P0Q8 = molecular target: MAST2, Q6P0Q8
Chain of MAST2, Q6P0Q8 (Q6P0Q8 1099-1202): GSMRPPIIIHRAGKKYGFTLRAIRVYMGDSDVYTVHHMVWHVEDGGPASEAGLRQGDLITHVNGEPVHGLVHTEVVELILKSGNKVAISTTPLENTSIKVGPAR

DLG1_1, Q12959 = molecular target: DLG1_1, Q12959
GRASP, Q7Z6J2 = molecular target: GRASP, Q7Z6J2
Chain of GRASP, Q7Z6J2 (Q7Z6J2 96-193): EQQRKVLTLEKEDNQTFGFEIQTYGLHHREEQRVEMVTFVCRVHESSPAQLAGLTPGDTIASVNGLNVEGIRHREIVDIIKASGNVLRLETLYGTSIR

GRIP2_3, Q9C0E4 = molecular target: GRIP2_3, Q9C0E4
Chain of GRIP2_3, Q9C0E4 (Q9C0E4 238-339): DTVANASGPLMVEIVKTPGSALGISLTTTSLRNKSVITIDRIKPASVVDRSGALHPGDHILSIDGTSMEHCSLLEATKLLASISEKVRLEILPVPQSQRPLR

MPDZ_10, O75970 = molecular target: T4, MPDZ_10, O75970
T4 sequence (O75970 1624-1722, limits assumed, looked up): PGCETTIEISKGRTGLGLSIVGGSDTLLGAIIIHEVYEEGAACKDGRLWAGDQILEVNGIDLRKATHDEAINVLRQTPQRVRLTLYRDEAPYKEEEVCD

SIPA1L2, Q9P2F8 = molecular target: T5, SIPA1L2, Q9P2F8
T5 sequence (Q9P2F8 945-1036, limits assumed, looked up): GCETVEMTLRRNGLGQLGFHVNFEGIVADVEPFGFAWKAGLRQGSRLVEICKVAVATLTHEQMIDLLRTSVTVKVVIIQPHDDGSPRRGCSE

FRMPD1, Q5SYB0 = molecular target: T6, FRMPD1, Q5SYB0
T6 sequence (Q5SYB0 52-145, limits assumed, looked up): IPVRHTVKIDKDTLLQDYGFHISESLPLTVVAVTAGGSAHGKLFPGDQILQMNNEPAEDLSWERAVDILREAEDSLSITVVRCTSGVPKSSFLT

PDZD7_3, Q9H5P4 = molecular target: T7, PDZD7_3, Q9H5P4
T7 sequence (Q9H5P4 857-944, limits assumed, looked up): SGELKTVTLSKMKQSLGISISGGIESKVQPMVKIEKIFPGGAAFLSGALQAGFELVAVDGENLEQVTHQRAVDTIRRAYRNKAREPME

NHERF3_4, Q5T2W1 = molecular target: T8, NHERF3_4, Q5T2W1
T8 sequence (Q5T2W1 373-468, limits assumed, looked up): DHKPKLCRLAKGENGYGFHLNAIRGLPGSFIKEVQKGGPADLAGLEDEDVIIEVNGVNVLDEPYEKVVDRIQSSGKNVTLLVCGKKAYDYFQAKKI

TJP2_1, Q9UDY2 = molecular target: TJP2_1, Q9UDY2
Chain of TJP2_1, Q9UDY2 (Q9UDY2 24-128): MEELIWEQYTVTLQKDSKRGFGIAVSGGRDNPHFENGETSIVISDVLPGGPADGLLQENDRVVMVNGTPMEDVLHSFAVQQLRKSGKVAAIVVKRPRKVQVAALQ

SNX27, Q96L92 = molecular target: SNX27, Q96L92
ARHGAP21, Q5T5U3 = molecular target: T9, ARHGAP21, Q5T5U3
T9 sequence (Q5T5U3 45-169, limits assumed, looked up): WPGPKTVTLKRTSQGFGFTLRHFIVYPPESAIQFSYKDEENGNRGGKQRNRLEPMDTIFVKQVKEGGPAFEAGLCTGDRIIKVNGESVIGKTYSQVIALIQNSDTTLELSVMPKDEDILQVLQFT

PDLIM1, O00151 = molecular target: PDLIM1, O00151
Chain of PDLIM1, O00151 (O00151 1-87): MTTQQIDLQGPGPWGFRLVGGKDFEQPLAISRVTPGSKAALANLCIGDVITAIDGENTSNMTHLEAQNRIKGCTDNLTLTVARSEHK

LIN7B, Q9HAP6 = molecular target: T10, LIN7B, Q9HAP6
T10 sequence (Q9HAP6 88-185, limits assumed, looked up): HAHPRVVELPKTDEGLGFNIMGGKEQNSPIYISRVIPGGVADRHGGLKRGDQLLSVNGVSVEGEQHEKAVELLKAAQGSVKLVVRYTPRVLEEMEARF

PTPN13_1, Q12923 = molecular target: T11, PTPN13_1, Q12923
T11 sequence (Q12923 1088-1188, limits assumed, looked up): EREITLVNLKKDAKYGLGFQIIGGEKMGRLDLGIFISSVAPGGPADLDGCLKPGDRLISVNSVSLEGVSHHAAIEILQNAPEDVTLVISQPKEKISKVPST

SYNJ2BP, P57105 = molecular target: T12, SYNJ2BP, P57105
T12 sequence (P57105 8-110, limits assumed, looked up): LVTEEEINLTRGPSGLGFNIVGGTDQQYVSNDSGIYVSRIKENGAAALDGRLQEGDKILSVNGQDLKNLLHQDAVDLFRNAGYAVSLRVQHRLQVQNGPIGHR

MAGI2_4, Q86UL8 = molecular target: MAGI2_4, Q86UL8
Chain of MAGI2_4, Q86UL8 (Q86UL8 772-865): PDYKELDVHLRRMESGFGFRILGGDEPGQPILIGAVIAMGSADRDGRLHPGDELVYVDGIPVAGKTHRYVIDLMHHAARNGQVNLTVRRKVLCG

HTRA4, P83105 = molecular target: T13, HTRA4, P83105
T13 sequence (P83105 378-476, limits assumed, looked up): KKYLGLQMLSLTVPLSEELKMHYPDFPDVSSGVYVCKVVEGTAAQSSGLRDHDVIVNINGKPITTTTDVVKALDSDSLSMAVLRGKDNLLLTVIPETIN

Row | Binder | pKd (APBA1_2, Q02410) | pKd (APBA2_2, Q99767) | pKd (GRIP2_7, Q9C0E4) | pKd (APBA3_1, O96018) | pKd (GIPC2, Q8TF65) | pKd (Inadl_2, Q8NI35) | pKd (MAGI3_2, Q5TCQ9) | pKd (MAST2, Q6P0Q8) | pKd (DLG1_1, Q12959) | pKd (GRASP, Q7Z6J2) | pKd (GRIP2_3, Q9C0E4) | pKd (MPDZ_10, O75970) | pKd (SIPA1L2, Q9P2F8) | pKd (FRMPD1, Q5SYB0) | pKd (PDZD7_3, Q9H5P4) | pKd (NHERF3_4, Q5T2W1) | pKd (TJP2_1, Q9UDY2) | pKd (SNX27, Q96L92) | pKd (ARHGAP21, Q5T5U3) | pKd (PDLIM1, O00151) | further results
1 | B1 | 3.64 | below the threshold | below the threshold | below the threshold | below the threshold | below the threshold | below the threshold | 5.57 | below the threshold | 4.77 | below the threshold | below the threshold | below the threshold | below the threshold | 4.75 | 4.6 | 3.73 | 4.35 | below the threshold | below the threshold | pKd (LIN7B, Q9HAP6): 3.88; pKd (PTPN13_1, Q12923): below the threshold; pKd (SYNJ2BP, P57105): 4.59; pKd (MAGI2_4, Q86UL8): below the threshold; pKd (HTRA4, P83105): below the threshold
2 | B2 | 3.99 | below the threshold | 4.89 | below the threshold | 3.52 | 4.97 | 4.75 | 3.77 | below the threshold | below the threshold | below the threshold | below the threshold | below the threshold | below the threshold | below the threshold | below the threshold | 3.52 | 3.64 | 4.2 | below the threshold | pKd (LIN7B, Q9HAP6): below the threshold; pKd (PTPN13_1, Q12923): below the threshold; pKd (SYNJ2BP, P57105): below the threshold; pKd (MAGI2_4, Q86UL8): 3.8; pKd (HTRA4, P83105): below the threshold
3 | B3 | 3.85 | below the threshold | below the threshold | below the threshold | below the threshold | below the threshold | below the threshold | below the threshold | below the threshold | below the threshold | below the threshold | 3.71 | below the threshold | below the threshold | below the threshold | below the threshold | below the threshold | below the threshold | below the threshold | below the threshold | pKd (LIN7B, Q9HAP6): below the threshold; pKd (PTPN13_1, Q12923): below the threshold; pKd (SYNJ2BP, P57105): below the threshold; pKd (MAGI2_4, Q86UL8): below the threshold; pKd (HTRA4, P83105): 3.93
4 | B4 | 3.98 | below the threshold | below the threshold | below the threshold | below the threshold | below the threshold | below the threshold | 4.85 | below the threshold | 5.01 | below the threshold | below the threshold | below the threshold | below the threshold | below the threshold | below the threshold | below the threshold | 3.77 | 4.17 | 3.83 | pKd (LIN7B, Q9HAP6): below the threshold; pKd (PTPN13_1, Q12923): below the threshold; pKd (SYNJ2BP, P57105): below the threshold; pKd (MAGI2_4, Q86UL8): below the threshold; pKd (HTRA4, P83105): below the threshold
5 | B5 | below the threshold | below the threshold | below the threshold | below the threshold | below the threshold | below the threshold | below the threshold | below the threshold | below the threshold | 3.7 | below the threshold | below the threshold | below the threshold | below the threshold | below the threshold | below the threshold | below the threshold | below the threshold | 3.47 | below the threshold | pKd (LIN7B, Q9HAP6): 3.55; pKd (PTPN13_1, Q12923): below the threshold; pKd (SYNJ2BP, P57105): below the threshold; pKd (MAGI2_4, Q86UL8): below the threshold; pKd (HTRA4, P83105): below the threshold
